Experimental data: patent publication US20140154248A1
Where two headings read alike, the source gives them in different places.

Assays:
Experiment in all cases: cell-based or functional assay
transferrin receptor = transferrin receptor (UniProt P02786)
human mesothelin (human) [1] = molecular target: human mesothelin (human) (UniProt Q13421)
human mesothelin (human) [2] = molecular target: human mesothelin (human) (UniProt Q13421); remark: listed apart in the source

Chain of UniProt Q13421 (Q13421 other isoform, or with tags, fused parts or gaps): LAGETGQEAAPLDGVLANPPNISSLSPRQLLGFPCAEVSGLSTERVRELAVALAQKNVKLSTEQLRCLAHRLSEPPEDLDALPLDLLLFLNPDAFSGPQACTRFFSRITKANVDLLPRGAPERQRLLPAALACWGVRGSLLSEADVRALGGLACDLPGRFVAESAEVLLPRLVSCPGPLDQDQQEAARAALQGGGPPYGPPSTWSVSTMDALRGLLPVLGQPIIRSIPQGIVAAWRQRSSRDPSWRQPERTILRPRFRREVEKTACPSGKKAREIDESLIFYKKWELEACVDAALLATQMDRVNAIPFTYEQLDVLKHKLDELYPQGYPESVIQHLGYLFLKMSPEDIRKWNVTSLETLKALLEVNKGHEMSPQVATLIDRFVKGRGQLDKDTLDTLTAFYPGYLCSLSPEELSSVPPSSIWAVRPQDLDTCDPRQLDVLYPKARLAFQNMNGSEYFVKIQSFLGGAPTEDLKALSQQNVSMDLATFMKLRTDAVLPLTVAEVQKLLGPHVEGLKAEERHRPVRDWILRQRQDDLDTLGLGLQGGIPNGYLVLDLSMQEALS
Chain of UniProt P02786 (P02786 whole entry): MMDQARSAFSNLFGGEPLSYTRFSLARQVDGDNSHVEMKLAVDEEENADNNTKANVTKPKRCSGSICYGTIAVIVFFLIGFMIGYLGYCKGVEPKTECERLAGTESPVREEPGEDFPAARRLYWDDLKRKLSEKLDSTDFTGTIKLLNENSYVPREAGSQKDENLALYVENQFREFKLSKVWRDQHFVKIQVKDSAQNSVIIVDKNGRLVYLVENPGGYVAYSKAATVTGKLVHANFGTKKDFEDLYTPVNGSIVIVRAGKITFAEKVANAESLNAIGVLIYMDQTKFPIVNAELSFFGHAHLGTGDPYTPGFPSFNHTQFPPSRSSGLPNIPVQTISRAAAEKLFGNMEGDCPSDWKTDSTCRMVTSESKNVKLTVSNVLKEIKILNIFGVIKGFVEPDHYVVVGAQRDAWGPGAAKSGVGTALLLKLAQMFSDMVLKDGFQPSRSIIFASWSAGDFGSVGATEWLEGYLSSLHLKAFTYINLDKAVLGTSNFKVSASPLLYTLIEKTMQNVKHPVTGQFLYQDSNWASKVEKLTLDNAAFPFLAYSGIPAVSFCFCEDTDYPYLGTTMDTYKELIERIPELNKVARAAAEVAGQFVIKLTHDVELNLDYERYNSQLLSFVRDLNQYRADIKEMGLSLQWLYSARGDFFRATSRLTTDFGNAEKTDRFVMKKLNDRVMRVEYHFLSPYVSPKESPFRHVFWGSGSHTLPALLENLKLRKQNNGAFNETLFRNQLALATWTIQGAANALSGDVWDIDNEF

| Substance | reduction of viability of patient cells NCI-M-02 and NCI-M-03 (crystal violet) (transferrin receptor) [%] | decrease in viability of patient cells NCI-M-02 and NCI-M-03 (crystal violet) (human mesothelin (human) [1]) [%] | EC50 (ng/ml), cytotoxicity WST-8, A431/K5 cells (human mesothelin (human) [2]) [ng/mL] | EC50 (ng/ml), cytotoxicity WST-8, A1847 cells (human mesothelin (human) [2]) [ng/mL] | EC50 (ng/ml), cytotoxicity WST-8, HAY cells (human mesothelin (human) [2]) [ng/mL] | EC50 (ng/ml), cytotoxicity WST-8, KB31 cells (human mesothelin (human) [2]) [ng/mL] | EC50 (ng/ml), cytotoxicity WST-8, L55 cells (human mesothelin (human) [2]) [ng/mL] | EC50 (ng/ml), cytotoxicity WST-8, M30 cells (human mesothelin (human) [2]) [ng/mL] | EC50 (ng/ml), cytotoxicity WST-8, OVACR-8 cells (human mesothelin (human) [2]) [ng/mL] | decrease in viability of patient cells NCI-M-02 and NCI-M-03 (crystal violet) (human mesothelin (human) [2]) [%] | decrease in viability of patient cells NCI-M-16 and NCI-M-19 (crystal violet) (human mesothelin (human) [2]) [%] |
| --- | --- | --- | --- | --- | --- | --- | --- | --- | --- | --- | --- |
| HB21 (anti-transferrin receptor/PE38) | 90 |  |  |  |  |  |  |  |  |  |  |
| SS1P (SS1 (dsFv)-PE38) (from UniProt P11439 278-638) |  | > 60 | 0.17 | 4.59 | 4.79 | 0.47 | 5.32 | 2.56 | 1.4 | > 65 | > 75 |
